Substrate in this data set: CC(=O)C(=O)O
The data set is described as follows: cells, lysate or membranes. The following applies: NADH, acetate buffer pH 5.6, 25 °C, no fructose 1,6-diphosphate, Table 2 prints 1,50. It counts as biochemical, Lactiplantibacillus plantarum.

B1: L. plantarum LDH (LpLDH, plLDH) (Lactiplantibacillus plantarum WCFS1; D94G) (protein)
chain: MSSMPNHQKVVLVGDGAVGSSYAFAMAQQGIAEEFVIVDVVKDRTKGDALDLEDAQAFTAPKKIYSGEYSDCKDADLVVITAGAPQKPGESRLGLVNKNLNILSSIVKPVVDSGFDGIFLVAANPVDILTYATWKFSGFPKDRVIGSGTSLDSSRLRVALGKQFNVDPRSVDAYIMGEHGDSEFAAYSTATIGTRPVRDVAKEQGVSDEDLAKLEDGVRNKAYDIINLKGATFYGIGTALMRISKAILRDENAVLPVGAYMDGQYGLNDIYIGTPAVIGGTGLKQIIESPLSADELKKMQDSAATLKKVLNDGLAELENK
notes: full length, TTG start changed to ATG, untagged, expressed in S. cerevisiae GRF18U; crude cell extract; homotetramer
In general, Km refers to the substrate concentration at which the rate is half of its maximum. B1: the Km came out at 1010 µM.

For the origin of these results see article PMC1373645, “Lactate production yield from engineered yeasts is dependent from the host background, the lactate dehydrogenase source and the lactate export” (Microbial Cell Factories, 2006).
